The text below walks through data of PMC3514216, “SRC Homology 2 Domain Binding Sites in Insulin, IGF-1 and FGF receptor mediated signaling networks reveal an extensive potential interactome” (Cell Communication and Signaling : CCS, 2012).

Common to all, as to settings: both partners purified
Assay [1] addresses T1, GST-Vav1 SH2 domain (human, UniProt P15498 671-765).
T1 construct: SH2 domain of Vav1; source: E. coli BL21, purified (glutathione sepharose, NAP-10)
T1 sequence (looked up): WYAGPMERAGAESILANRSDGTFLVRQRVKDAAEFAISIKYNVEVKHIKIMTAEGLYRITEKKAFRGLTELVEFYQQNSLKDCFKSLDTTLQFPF
The experiment in a line: fluorescence polarisation; Rhodamine B-labelled peptide in solution with SH2 domain; Beacon 2000; as previously described [40].

Assay [2] has as its target T2, GST-Src SH2 domain (human, UniProt P12931 151-248).
T2 construct: SH2 domain of Src; source: E. coli BL21, purified (glutathione sepharose, NAP-10)
The description is as above.

In assay [3] the target is T3, GST-CrkL SH2 domain (human, UniProt P46109 14-102).
T3 construct: SH2 domain of CrkL; source: E. coli BL21, purified (glutathione sepharose, NAP-10)
The assay is described as above.

The target of assay [4] is T4, GST-Crk SH2 domain (human, UniProt P46108 13-118).
T4 construct: SH2 domain of Crk; source: E. coli BL21, purified (glutathione sepharose, NAP-10)
Described as above.

Assay [5] has as its target T5, GST-Nck1 SH2 domain (human, UniProt P16333 282-376).
T5 construct: SH2 domain of Nck1; source: E. coli BL21, purified (glutathione sepharose, NAP-10)
The description is as above.

Assay [6] addresses T6, GST-Abl1 SH2 domain (human, UniProt P00519 127-217).
T6 construct: SH2 domain of Abl1; source: E. coli BL21, purified (glutathione sepharose, NAP-10)
T6 sequence (looked up): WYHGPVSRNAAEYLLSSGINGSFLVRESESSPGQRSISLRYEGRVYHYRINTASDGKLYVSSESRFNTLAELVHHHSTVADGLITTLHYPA
The description is as above.

The target of assay [7] is T7, GST-Grb2 SH2 domain (human, UniProt P62993 60-152).
T7 construct: SH2 domain of Grb2; source: E. coli BL21, purified (glutathione sepharose, NAP-10)
The assay is described as above.

Assay [8] has as its target T8, GST-Shb SH2 domain (human, UniProt Q15464 410-504).
T8 construct: SH2 domain of Shb; source: E. coli BL21, purified (glutathione sepharose, NAP-10)
The description is as above.

In assay [9] the target is T9, GST-Sh2d1b SH2 domain (human, UniProt O14796 5-101).
T9 construct: SH2 domain of Sh2d1b (Eat-2); also called Eat-2; source: E. coli BL21, purified (glutathione sepharose, NAP-10)
T9 sequence (looked up): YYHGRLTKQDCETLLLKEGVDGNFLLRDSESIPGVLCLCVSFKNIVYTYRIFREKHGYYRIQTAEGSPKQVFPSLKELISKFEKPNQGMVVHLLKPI
The description is as above.

The target of assay [10] is T10, GST-Abl2 SH2 domain (human, UniProt P42684 173-263).
T10 construct: SH2 domain of Abl2; source: E. coli BL21, purified (glutathione sepharose, NAP-10)
T10 sequence (looked up): T6 sequence (looked up) with N9S, G18L, R35L, A53T, S54A, L58V, S61T, S62A, N67S, I84V
The assay is described as above.

The target in assay [11] is T11, GST-Tenc1 SH2 domain (human, UniProt Q63HR2 1140-1247).
T11 construct: source: E. coli BL21, purified (glutathione sepharose, NAP-10)
T11 sequence (looked up): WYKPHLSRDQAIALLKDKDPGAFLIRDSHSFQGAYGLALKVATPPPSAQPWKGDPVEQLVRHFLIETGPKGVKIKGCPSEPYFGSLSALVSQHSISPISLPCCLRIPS
The assay is described as above.

The target of assay [12] is T12, GST-Sh2b SH2 domain (human, UniProt Q9NRF2 527-625).
T12 construct: SH2 domain of Sh2b; source: E. coli BL21, purified (glutathione sepharose, NAP-10)
Described as above.

Assay [13] deals with T13, GST-Ship2 SH2 domain (human, UniProt O15357 21-117).
T13 construct: SH2 domain of Ship2; source: E. coli BL21, purified (glutathione sepharose, NAP-10)
T13 sequence (looked up): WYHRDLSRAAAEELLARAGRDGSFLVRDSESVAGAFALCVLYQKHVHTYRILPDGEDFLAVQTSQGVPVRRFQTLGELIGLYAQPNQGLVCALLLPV
The description is as above.

Assay [14] deals with T14, GST-Shc1 SH2 domain (human, UniProt P29353 488-579).
T14 construct: SH2 domain of Shc1; source: E. coli BL21, purified (glutathione sepharose, NAP-10)
T14 sequence (looked up): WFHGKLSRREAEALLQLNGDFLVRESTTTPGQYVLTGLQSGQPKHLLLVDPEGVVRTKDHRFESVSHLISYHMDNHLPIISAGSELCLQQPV
The assay is described as above.

In assay [15] the target is T15, GST-Yes SH2 domain (human, UniProt P07947 158-255).
T15 construct: SH2 domain of the kinase Yes; source: E. coli BL21, purified (glutathione sepharose, NAP-10)
The experiment in a line: peptide or protein array; SPOT array of 192 membrane-bound 11-mer phosphotyrosine peptides; GST-SH2 0.25 uM in TBS-T with 5% nonfat milk and 1 mM DTT, 1.5 h, room temperature; anti-GST and Alexa-Fluor-680 secondary, Li-Cor Odyssey; array positive >3X the array mean, array negative <1X, indeterminate between.

Assay [16] addresses T16, GST-Fer SH2 domain (human, UniProt P16591 460-550).
T16 construct: SH2 domain of Fer; source: E. coli BL21, purified (glutathione sepharose, NAP-10)
The assay can be described thus: fluorescence polarisation; Rhodamine B-labelled peptide in solution with SH2 domain; Beacon 2000; as previously described [40].

Assay [17] has as its target T17, GST-Sh3bp2 SH2 domain (human, UniProt P78314 457-555).
T17 construct: SH2 domain of Sh3bp2; source: E. coli BL21, purified (glutathione sepharose, NAP-10)
T17 sequence (looked up): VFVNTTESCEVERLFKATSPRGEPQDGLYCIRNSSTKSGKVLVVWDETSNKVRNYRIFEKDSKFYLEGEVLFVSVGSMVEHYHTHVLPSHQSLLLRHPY
The assay is described as above.

Assay [18] concerns the target T18, GST-Fgr SH2 domain (human, UniProt P09769 144-241).
T18 construct: SH2 domain of Fgr; source: E. coli BL21, purified (glutathione sepharose, NAP-10)
The assay is described as above.

Assay [19] concerns the target T19, GST-Itk SH2 domain (human, UniProt Q08881 239-338).
T19 construct: SH2 domain of Itk; source: E. coli BL21, purified (glutathione sepharose, NAP-10)
T19 sequence (looked up): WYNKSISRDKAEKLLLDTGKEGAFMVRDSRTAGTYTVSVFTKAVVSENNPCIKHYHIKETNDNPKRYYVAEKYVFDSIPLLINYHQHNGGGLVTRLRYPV
The description is as above.

The target in assay [20] is T20, GST-Brk SH2 domain (human, UniProt Q13882 78-170).
T20 construct: SH2 domain of Brk; source: E. coli BL21, purified (glutathione sepharose, NAP-10)
Described as above.

Substitutions are numbered along the chain they refer to. Non-standard residues stand in square brackets, D forms with d. No end group written: not given here. pY = N[C@@H](Cc1ccc(OP(=O)(O)O)cc1)C(=O)O

T3 sequence (P46109 14-102): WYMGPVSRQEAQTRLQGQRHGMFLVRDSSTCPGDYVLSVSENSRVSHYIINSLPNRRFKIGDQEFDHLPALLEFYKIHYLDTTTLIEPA
T4 sequence (P46108 13-118): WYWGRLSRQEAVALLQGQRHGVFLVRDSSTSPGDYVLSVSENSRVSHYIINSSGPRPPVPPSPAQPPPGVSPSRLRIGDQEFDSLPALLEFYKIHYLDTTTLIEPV
T7 sequence (P62993 60-152): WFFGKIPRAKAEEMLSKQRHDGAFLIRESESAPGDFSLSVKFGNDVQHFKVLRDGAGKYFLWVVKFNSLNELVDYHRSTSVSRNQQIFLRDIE
T8 sequence (Q15464 410-504): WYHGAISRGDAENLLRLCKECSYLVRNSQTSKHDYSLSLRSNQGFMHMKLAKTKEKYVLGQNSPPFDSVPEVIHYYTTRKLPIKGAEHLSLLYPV
T16 sequence (P16591 460-550): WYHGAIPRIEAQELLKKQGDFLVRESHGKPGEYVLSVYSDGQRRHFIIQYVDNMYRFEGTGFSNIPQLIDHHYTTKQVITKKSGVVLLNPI
T15 sequence (P07947 158-255): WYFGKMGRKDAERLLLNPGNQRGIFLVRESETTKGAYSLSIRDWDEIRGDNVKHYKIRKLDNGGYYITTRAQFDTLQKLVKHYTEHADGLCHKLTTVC
T20 sequence (Q13882 78-170): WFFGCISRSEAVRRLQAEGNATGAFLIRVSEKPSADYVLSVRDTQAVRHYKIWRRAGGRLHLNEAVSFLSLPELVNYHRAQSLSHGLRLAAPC

B1: FGFR1 (Y463) phosphopeptide GVSEpYELPEDP, Rhodamine B-labelled (peptide)
peptide: GVSE[pY]ELPEDP
modifications: not fully specified (N-terminus); also: Rhodamine B label, site not given here
notes: FGFR1 around Y463; also called FGFR1 pY-463; source: synthetic peptide (FMOC chemistry), purified by LC/MS
Regarding B1, the equilibrium dissociation constant (Kd) in assay [1] is 1.87 µM; in [2] it was 6.85 µM; in assay [3], over 50 µM; in [4], 44 µM; in assay [5], 2450 nM.

B2: IRS-1 (Y1179) phosphopeptide NGLNpYIDLDLV, Rhodamine B-labelled (peptide)
peptide: NGLN[pY]IDLDLV
modifications: not fully specified (N-terminus); also: Rhodamine B label, site not given here
notes: IRS-1 around Y1179; source: synthetic peptide (FMOC chemistry), purified by LC/MS
Regarding B2, the Kd in assay [2] was 9.94 µM; in assay [6], 22.2 µM; in assay [3], over 50 µM; in [7] it was over 50000 nM.

B3: FGFR3 (Y760) phosphopeptide STDEpYLDLSAP, Rhodamine B-labelled (peptide)
peptide: STDE[pY]LDLSAP
modifications: also: Rhodamine B label, site not given here
notes: FGFR3 around Y760; source: synthetic peptide (FMOC chemistry), purified by LC/MS
For B3, the results for the dissociation constant Kd in [8], in assay [9] and in assay [10] were over 50 µM, 5.3 µM and 27 µM, respectively.

B4: IRS-1 (Y896) phosphopeptide SPGEpYVNIEFG, Rhodamine B-labelled (peptide)
peptide: SPGE[pY]VNIEFG
modifications: also: Rhodamine B label, site not given here
notes: IRS-1 around Y896; source: synthetic peptide (FMOC chemistry), purified by LC/MS
As for B4, the Kd in [11] is 24 µM; in [2], 2.21 µM; in assay [6], 7.48 µM; in assay [10] it was 3.66 µM; in [4] it was over 20 µM; in [12], 3.58 µM. This molecule showed a Kd in [7] of 800 nM.

B5: p130Cas (Y362) phosphopeptide AEDVpYDVPPPA, Rhodamine B-labelled (peptide)
peptide: AEDV[pY]DVPPPA
modifications: not fully specified (N-terminus); also: Rhodamine B label, site not given here
notes: p130Cas (BCAR1) around Y362; source: synthetic peptide (FMOC chemistry), purified by LC/MS
Turning to B5, the Kd in assay [13] stood at 16.5 µM; in assay [10], 14 µM; in assay [3], 0.99 µM; in [4] it was 0.35 µM; in assay [14] it was 32.8 µM; in assay [5], 930 nM.

B6: p130Cas (Y234) peptide EQDEYDIPRHL, SPOT array (peptide)
peptide: EQDE[pY]DIPRHL
modifications: also: membrane-bound on SPOT array
notes: p130Cas (BCAR1) around Y234; source: synthetic peptide, SPOT synthesis on cellulose membrane
B6: the binding result in [15] is “binds”.

B7: p62DOK1 (Y398) phosphopeptide KEEGpYELPYNP, Rhodamine B-labelled (peptide)
peptide: KEEG[pY]ELPYNP
modifications: not fully specified (N-terminus); also: Rhodamine B label, site not given here
notes: p62DOK1 around Y398; source: synthetic peptide (FMOC chemistry), purified by LC/MS
Regarding B7, the Kd in [16] is 13.3 µM; in assay [1], 4.73 µM; in assay [17], 1680 nM; in assay [2], 5.06 µM; in assay [6] it was 5.77 µM; in assay [10], 3.47 µM. Further, the Kd in assay [4] turned out to be 23.7 µM; in assay [14], 5.74 µM; in [18], 2040 nM; in assay [19], 5.43 µM; in [5], 4370 nM; in assay [20] it was 420 nM.
